Reference: publication PMC8567202, “Phosphoinositide-binding activity of Smad2 is essential for its function in TGF-β signaling” (The Journal of Biological Chemistry, 2021)

How the values were obtained:
[1] = SPR membrane binding to POPC/POPS/PI(3)P vesicles; conditions: POPC/POPS/PI(3)P (77:20:3)
Excerpt: It has been generally thought that Smad2 and Smad3 are targeted to the activated TGF-β signaling complex by direct interaction with TβRI ([1], [2]) or via SARA ([7]). However, it has been shown that many cytosolic proteins that are targeted to membrane proteins or membrane-anchored signaling complexes have affinity for membrane lipids ([14]), phosphoinositides (PtdInsPs) in particular, and that their membrane recruitment is mediated by coincident lipid–protein and protein–protein interactions ([15], [16]). […] We thus measured the binding of bacterially expressed Smad2 to large unilamellar vesicles (LUVs) containing various lipids by surface plasmon resonance (SPR) analysis ([19], [20]). Lipid selectivity determined by SPR analysis is typically reported as the relative resonance unit (RU) values for different lipids at a given protein concentration ([21], [22]). […] We thus estimated RUmax for different lipid species by employing the highest protein concentration experimentally feasible (e.g., 1 μM) and determined RU/RUmax for different lipids at the protein concentration that allows robust comparison (e.g., 100 nM). Once the lipid selectivity has been determined by this semiquantitative approach, we then rigorously determined and compared Kd values for selected lipids for more accurate quantitative determination of lipid selectivity. […]

[2] = SPR membrane binding to POPC/POPS/PI(3,4)P2 vesicles; conditions: POPC/POPS/PI(3,4)P2 (77:20:3), 1 μM Smad2
Experimental: Figure 1 Membrane-binding properties of Smad2 FL protein and MH2 domain determined by SPR analysis.A, PtdInsP selectivity of Smad2-FL determined using POPC/POPS/PtdInsP (77:20:3 in mole ratio) LUVs coated on the L1 sensor chip. The protein concentration was 100 nM. PIP3 indicates PI(3,4,5)P3. B, determination of Kd for binding of Smad2 FL to different LUVs. The protein concentration was varied from 0 to 500 nM. C, PI(4,5)P2 concentration dependence of membrane binding of Smad2-FL determined using POPC/POPS/PI(4,5)P2 (77-x:20:x, x = 0–5 mol%) LUVs. The protein concentration was 100 nM. D, PtdInsP selectivity of the Smad2 MH2 domain determined using POPC/POPS/PtdInsP (77:20:3 in mole ratio) LUVs. […] RUmax values determined for different vesicles at 1 μM Smad2 were: 280 ± 20 for POPC/POPS/PI(4,5)P2 (77:20:3), 370 ± 10 for POPC/POPS/PI(3,4)P2 (77:20:3), 400 ± 15 for POPC/POPS/PI(3,4,5)P3 (or PIP3) (77:20:3), 400 ± 20 for POPC/POPS/PI(3)P (77:20:3), and 380 ± 20 for POPC/POPS (80:20). […]
All SPR measurements were performed at 23 °C in 20 mM Tris, pH 7.4, containing 0.16 M NaCl using a lipid-coated L1 chip in the BIACORE X-100 system (GE Healthcare) as described previously ([19], [38]). […] Sensorgrams were collected for both membrane association and dissociation but the only the association phases were further analyzed because the dissociation phases were often too slow for analysis. […]

B1: Smad2 WT: bacterially expressed full-length Smad2 wild-type (protein)
chain: MSSILPFTPPVVKRLLGWKKSAGGSGGAGGGEQNGQEEKWCEKAVKSLVKKLKKTGRLDELEKAITTQNCNTKCVTIPSTCSEIWGLSTANTVDQWDTTGLYSFSEQTRSLDGRLQVSHRKGLPHVIYCRLWRWPDLHSHHELKAIENCEYAFNLKKDEVCVNPYHYQRVETPVLPPVLVPRHTEILTELPPLDDYTHSIPENTNFPAGIEPQSNYIPETPPPGYISEDGETSDQQLNQSMDTGSPAELSPTTLSPVNHSLDLQPVTYSEPAFWCSIAYYELNQRVGETFHASQPSLTVDGFTDPSNSERFCLGLLSNVNRNATVEMTRRHIGRGVRLYYIGGEVFAECLSDSAIFVQSPNCNQRYGWHPATVCKIPPGCNLKIFNNQEFAALLAQSVNQGFEAVYQLTRMCTIRMSFVKGWGAEYRRQTVTSTPCWIELHLNGPLQWLDKVLTQMGSPSVRCSSMS
modifications: left off: His6, N-terminal, state not stated
notes: bacterially expressed full-length Smad2 wild-type
- RUmax ([1]; 1 μM Smad2): 400 ± 20
- Kd ([1]; SPR, L1 chip, 23 °C, 20 mM Tris, pH 7.4, 0.16 M NaCl, average ±S.D., n = 3, read-out: Kd for lipid binding, PC/PS/PI(3)P): 210 ± 34 nM
- RUmax [2]: 370 ± 10
